Source: US12723078 (University of Texas, dated 2026)
Residue numbers refer to the chain shown, from its start.

B1: mAb of B cell clone 93 (supernatant) (antibody, V domains shown)
VH: EQSVEESGGDLVKPGTSLTLTCTASGFSFSGNTICWVRQAPGKRPEWIACIYPSSTSITTYATWAKGRFTVSKTSSTTVTLQMTSLTAADTATYFCARRYAAFLTYGSGAFDPWGPGTLVTISS
VL: ELDLTQTPASVSAAVGGTVTINCQASESIGSALAWYQQKPGQPPKLLIYSASALASGVPSRFKGSGSGTEYTLTISDLECADAATYYCQSYYGSGTTALDTFGGGTEVEIK
notes: rabbit; also called B1-#93
B2: mAb of B cell clone 110 (supernatant) (antibody, V domains shown)
VH: QSLEESGGDLVKPEGSLTLTCTASGFSFSSSYWICWVRQAPGKGLEWIGCIYAGNSANTYYASWAKGRFTISKTSSTTVTLQLTSLTAADTATYFCASRNGGAPDGLNLWGPGTLVTISS
VL: ELDLTQTPASVEAAVGGTVTIKCQASLNINSWLAWYQQKPGQPPKLLISYTSSLASGVPSRFKGSGSGTEYTLTINDLECADAATYYCQTTYFGTNGGGFGGGTEVEIK
notes: rabbit; also called B1-#110
B3: mAb of B cell clone 125 (supernatant) (antibody, V domains shown)
VH: EQSLEESGGGLVQPEGSLTLTCTASGFSFTKNYYMCWVRQAPGKGLEWIGCIYAGSTNTFYASWAKGRFTISKASSTTVDLKMTSLTVADTATYFCARDFVSYLNLWGPGTLVTVSS
VL: ELDLTQTPSSSSAAVGGTVTINCQASQSVYNKNYLSWFQQKPGQPPKLLIYYASTLASGVPSRFKGSGSGTEFTLTISDVVCDDAATYYCAAYKGVSDDGISFGGGTEVEIK
notes: rabbit
B4: mAb of B cell clone 115 (supernatant) (antibody, V domains shown)
VH: EQSVKESGGGLVQPEGSLTLTCTASGFSFSSSYWICWVRQAPGKGLEWIGCIATGTGSTYYANWVNGRFTMSKPSSTTVTLQMTTLTAADTATYFCARGGGYWSFSLWGPGTLVTISS
VL: ELVMTQTPSSVEAAVGGTVTNKCQASEDIYSNLAWYQQKPGQPPKLLIYGATTLASGVPSRFKGSGSGTEFTLTISDLECADAATYYCQAESNDVWAFGGGTEVVVK
notes: rabbit
B5: mAb of B cell clone 167 (supernatant) (antibody, V domains shown)
VH: EQLMEESGGGLVQPEGSLTLTCTASRFSLSNMNVMCWVRQAPGKGLEWIGCINIGGTNIWYASWAKGRFTISKTSSTTVTLQMTSLTVADTATYFCARSYITDRIYDYDFWGPGTLVTISS
VL: ELDMTQTPSPVSAAVGGSVTISCQASQTIYNNKNLAWYQQKPGQPPKLLIYQASKLASGVSSRFSGSGSGTQFTLTISGVQCDDAATYYCQGEFSCSSGDCTTFGGGTEVVVK
notes: rabbit
B6: mAb of B cell clone 170 (supernatant) (antibody, V domains shown)
VH: QSVEESGGGLVKPGASLTLSCTASGFDFSSKYYMWWVRQAPGKGLEWIARIYGGSSDSTDYATWARGRFAISRTSSTTVTLRMTSLTAADTATYFCGRVIDGACGYDLWGPGTLVTVSS
VL: ELDLTQTPASVSAAVGGTVTISCQSSQSVHHSQTVHNNQWLAWYQQKPGQPPKLLIYDASKLASGVPSRFTGSGSGTQFSLTISAVQCDDAATYYCQGGYSYGDVYGFGGGTELEIK
notes: rabbit; also called B1-#170
B7: mAb of B cell clone 98 (supernatant) (antibody, V domains shown)
VH: EQSLEESGGDLVKPEGSLTLTCTASGFSFSSSYWICWVRQAPGKGLEWIACVATGSGTTDYASWAKGRFTMSKTSSTTVTLQMTSLTVADTATYFCARIGAFYSFRLWGPGTLVTISS
VL: ELDLTQTPGSVEAAVGGTVTIKCQAGQSIYNYLSWYQQKPGQPPKLLIYSASTLESGVPPRFSGSGSGTEFTLTISDLECADAATYSCQNNYGIGSNYGPGFGGGTEVEIK
notes: rabbit; also called B1-#98
B8: mAb of B cell clone 154 (supernatant) (antibody, V domains shown)
VH: QSVKESGGDLVKPGASLTLTCKASGFSFSSGHYMYWVRQAPGKGLEWIACIYAGSDTGSTWYASWAKGRFTISKTSSTTVTLQMTSLTAADTATYFCARSSNSYGNYGVSNLWGPGTLVTVSS
VL: ELDLTQTPASVEAAVRGTVTIKCQASQSISYYLAWYQQKPGQPPKVLIYKASTLASGVPPRFKGSGFGTEFTLTISDLECADAATYYCQSTYGRDNNDLFFAFGGGTEVEIK
notes: rabbit
B9: mAb of B cell clone 3 (supernatant) (antibody, V domains shown)
VH: QSLEESEGDLVKPEGSLTLTCKASGFDFSSDAMCWVRQAPGKGLEWIGCIYNGDEITDHASWAKGRFTISKTSPTTVTLQMTSLTVADTATYFCARAVYSDGGAGYPYMYGMDLWGPGTLVTVSS
VL: ELDMTQTPASVEAAVGGTVTIKCQASQNIYSYLVWYQQKPGQPPKLLISKASTLASGVSSRFKGSGSGTEFTLTINDLECADAATYYCQTNYFSSTSHFGVFTFGGGTELEIK
notes: rabbit; also called B1-#3
B10: mAb of B cell clone 204 (supernatant) (antibody, V domains shown)
VH: QSVKESGGGLVKPGGTLTLTCTASGFSFSSSYCMCWVRQAPGKGLELIACIYTDSSGATYYASWAKGRFTISKSSSTTITLQMTSLTAADTATYFCARGWDYEDPGYTDTTYFSLWGPGTLVTVSS
VL: ELDMTQTPSSVEAAVGGTVTIKCQASQTIYTNLAWYQQKPGQPPNLLIYAASTLASGVSSRFKGSGSGTEFTLTISDLECADAATYYCQSYYGSSTTGNGFGGGTEVEIN
notes: rabbit
B11: mAb of B cell clone 227 (supernatant) (antibody, V domains shown)
VH: B10 VH
VL: ELDLTQTASPVSGAVGGTVTIKCQASQSIASDLAWYQQKPGQPPNLLIYAASTLASGVSSRFKGSGSGTEFTLTISDLECADAATYYCQSYYGSSTTGNGFGGGTEVVVK
notes: rabbit
B12: mAb of B cell clone 176 (supernatant) (antibody, V domains shown)
VH: B10 VH with V3L, K4E, G7E
VL: B10 VL with M4L, N110K
notes: rabbit
B13: mAb of B cell clone 128 (supernatant) (antibody, V domains shown)
VH: RAVGKESGGDLVTLGGSLKLSCKASGIDLSNFYYMCWVRQAPGKGLEWIGCVASDSSRTHYATWPKGRFTISKTSSTTVTLQMTSLTAADTATYFCARGSGASTNGVWWVMGDGMDLWGPGTLVTVSS
VL: ELDMTQTPSSVSAAVGGTVTIKCQASQSISSYLSWYQQKPGQPPKRLIYKASTLPSGVPPRFKGSGSGTEFTLTISDLECADAATYYCQNNYHSGSSNGGGFAFGGGTQVEIK
notes: rabbit
B14: mAb of B cell clone 117 (supernatant) (antibody, V domains shown)
VH: EQSLEESGGDLVKPEGSLTLTCTASGFSFSSSYYMCWIRQPPGRGLEWLACIYTGSDSTYYAPWAKGRFTISRTSSTTVTLQMTSLTAADTATYFCAGDWDYADAAGYYVARGFNLWGPGTLVTISS
VL: ELDLTQTPASVSAAVGGTVTIKCQASEDIYSNLAWYQQKPGQPPKLLIYKASTLASGVPPRFKGSGSGTEYTLTISGVQCDDAATYACQTTYWTTTDDNPFGGGTEVEIK
notes: rabbit
B15: mAb of B cell clone 175 (supernatant) (antibody, V domains shown)
VH: ESEGGLVKPGGTLTLTCKVSGIDFNSYKYYYMCWVRQAPGKGLEWIGCMSTASRNIYYASWAKGRFTISETSSTSVTLQMTTLTAADTATYFCAKSHGGDGGYGVVLWGPGTLVTISS
VL: ELVMTQTPSSVSAAVGDTLTINCQASETISNRLAWYQQKPGQPPKLLIYSASTLESGVPSRFRGSGSGTQFTLTISDLECADAATYYCQSIRSSSGVVHPNTFGGGTEVEIK
notes: rabbit
B16: mAb of B cell clone 173 (supernatant) (antibody, V domains shown)
VH: QSVEESGGDLVKPGASLTLTCTASGFDFSSNAYLCWVRQAPGKGLEWIGCIYDGTSGDTYYANWAKGRFTISRSSSTTVTLQMTSLTAADTATYFCARDTRSSNYYFNLWGPGTLVTISS
VL: ELVLTQTPSSTSAAVGGTVTINCQASQSVDNNKQLSWYQQKPGQPPKQLIYSASKLASGVPSRFKGSGSGTQFTLTISDLECDDAATYYCAGYYYSGSATDAWAFGGATEVEIN
notes: rabbit
B17: mAb of B cell clone 4 (supernatant) (antibody, V domains shown)
VH: RAVGKESGGGLVKPGASLTLTCKASGFDFSGIYWVCWVRQAPGKGLEWIACFDAERTGNTYYATWAKGRFTISRTSSTTVTLQMTSLTAADTATYFCARSYYMWGPGTLVTVSS
VL: ELVLTQTPSPVSAVVGGSVTINCQSSQSLYNANDLSWYQQKPGQPPKQLIYWASTLASGVPSRFKGSGSGTQFTLSISDVQCDDAATYYCLGEFSCSSFDCHVFGGGTEVVVK
notes: rabbit; also called B1-#4
B18: mAb of B cell clone 5 (supernatant) (antibody, V domains shown)
VH: EQSLEESGGDLVKPEGSLTLTCTASELSFSSAYYMCWVRQAPGKGLEWIGCIYSGDGDTYYANWAKGRFTISKTSSTTVTLQMTSLTDADTATYFCARALDSHYSSFDLWGPGTLVTISS
VL: ELDMTQTPSSVSAAVGDTVTIKCQASQSIYRYLAWYQQKPGQRPSLLIYYGSDLASGVPSRFSGSGSGTEFTLTISDLECADAASYYCQTTYDDYHNGWAFGGGTNVEIN
notes: rabbit; also called B1-#5
B19: mAb of B cell clone 162 (supernatant) (antibody, V domains shown)
VH: QSVKESEGGLVQPGGSLTLSCKASGIDFSSAYMSWVRQAPGKGLEWIGKMRINDRSHYANWVNGRFTISNHNDQNTVELQLNSLTAADTATYFCARIATGTNVDDFWGPGTLVTISS
VL: ELVMTQTASPVSAAVGGTVTISCQSSQSVYSNNWLSWYQQKPGQPPKRLIYKASTLETGVPSRFKGSGSGKQFTLTISDLECDDAATYYCAGGYSGDLYAFGGGTEVVVK
notes: rabbit; also called B1-#162
B20: mAb of B cell clone 160 (supernatant) (antibody, V domains shown)
VH: QEQLVESGGGLVQPEGSLTLTCKASGIDFSSGYWICWVRQAPGKGLELIACIFTSSGTTYYASWAKGRFTISKTSSTTVTLQMTSLTAADTATYFCARDIYSYGMDLWGPGTLVTVSS
VL: ELDLTQTPASVSAAVGGTVTIKCQASQSISSSYLAWYQQKPGQPPKLLIYSASSTASGVPSRFKGSGSGTQFTLTISDLECADAATYYCQSTYISSSKYGAVFGGGTELEIK
notes: rabbit; also called B1-#160
B21: mAb of B cell clone 190 (supernatant) (antibody, V domains shown)
VH: QEQLKESGGDLVKPEGSLTLTCTASGFSFSSDYWVCWVRQAPGKGPEWIGCIYTGDDDTYYASWAKGRFTISKTSSTTVTLEVTSLTAADTATYFCARGLTIGTAELYFWGPGTVVTVSS
VL: ELVLTQTPSPVSAAVGGTVTINCQASQSISNELSWYQQKPGQPPKLLIYLASTLDSGVPSRFKGSGSGTQFTLTISDLECADAATYYCQSHYYGGSSDYGWAFGGGTEVVVK
notes: rabbit; also called B1-#190
B22: mAb of B cell clone 178 (supernatant) (antibody, V domains shown)
VH: QKQLVESGGGLVQPEGSLALTCTASGFSFSSSYWICWVRQAPGKGLEWIACIYAGSSGSTYYASWVNGRFTVFKTSSTTVTLQMTSLTAADTATYFCARGGTSYRLDLWGPGTLVTVSS
VL: ELVLTQTPSSKSVAVGDTVTINCQASDNVYSNNYTSWFQQKPGQPPKQLLYYAAYRASGVPSRFKGSGSGTEFTLSISDVVCDDAATYYCSGHKDYSDDGSTFGGGTEVEIK
notes: rabbit
B23: mAb of B cell clone 185 (supernatant) (antibody, V domains shown)
VH: SQQLKESGGGLVKPGGTLTLTCKASGIDFNNDYNICWVRQPPGKGLEWIGCIYTGSDSTDYASWVNGRFTISESTSLNTVDLKVTSLTDADTATYFCARDLVTGYATYGYGFILWGPGTLVTVSS
VL: B22 VL
notes: rabbit

These binders were tested against T1, human LILRB1 recombinant protein (human, UniProt Q8NHL6 24-461) (assay: ELISA, B cell supernatant).
T1 construct: The ELISA method says only 'LILRB1 recombinant proteins' coated on plates; also called leukocyte immunoglobulin-like receptor subfamily B member 1
T1 sequence (Q8NHL6 24-461 limits assumed): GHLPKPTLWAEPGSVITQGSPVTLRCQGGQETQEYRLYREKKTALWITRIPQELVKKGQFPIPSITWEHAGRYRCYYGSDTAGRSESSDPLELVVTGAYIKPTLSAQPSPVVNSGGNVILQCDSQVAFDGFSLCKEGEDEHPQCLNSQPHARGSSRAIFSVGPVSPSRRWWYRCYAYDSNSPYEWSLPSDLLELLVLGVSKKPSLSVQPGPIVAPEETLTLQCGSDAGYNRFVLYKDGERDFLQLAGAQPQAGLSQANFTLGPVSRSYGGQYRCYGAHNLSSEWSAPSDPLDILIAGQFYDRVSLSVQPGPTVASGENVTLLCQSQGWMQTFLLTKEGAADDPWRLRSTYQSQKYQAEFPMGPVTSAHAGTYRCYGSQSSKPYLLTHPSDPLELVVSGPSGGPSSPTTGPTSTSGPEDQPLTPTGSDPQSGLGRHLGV

| Binder | OD450 [OD450] |
| --- | --- |
| B1 | 1.72 |
| B2 | 2.31 |
| B3 | 2.43 |
| B4 | 1.53 |
| B5 | 1.12 |
| B6 | 2.26 |
| B7 | 2.01 |
| B8 | 1.98 |
| B9 | 2.11 |
| B10 | 2.03 |
| B11 | 2.08 |
| B12 | 2.06 |
| B13 | 2.51 |
| B14 | 2.23 |
| B15 | 2.02 |
| B16 | 2.14 |
| B17 | 2.47 |
| B18 | 2.27 |
| B19 | 2.02 |
| B20 | 1.87 |
| B21 | 1.9 |
| B22 | 1.81 |
| B23 | 1.67 |
